The target of test [1] is T1, hCD71-Nluc fusion protein (human, UniProt P02786 1-760).
T1 construct: whole, on cells; Used as crude membrane fractions of HEK293 cells stably expressing hCD71-Nluc; also called human transferrin receptor, CD71, fused to NanoLuc; not shown: NanoLuc (ProMega) luciferase joined through its N-terminal Val
The test can be described thus: nanoBRET competition, tracer BCY17871-1598988 60 nM, HEK293 hCD71-Nluc membranes. (Bioluminescence resonance energy transfer reports proximity on the nanometre scale.)

In test [2] the target is T1, hCD71-Nluc fusion protein. The test is described as above. This is another data set of the same source.
Experimental: (§1) The mixtures were incubated for 3 hours at room temperature to reach equilibrium. To initiate BRET, 12.4 μL of 100 μM of the Nluc substrate furimazine was added to each well, and the mixtures were incubated for 5-30 minutes. The assay plate was read on a Promega GlowMax Discover plate reader at wavelengths of 450 nm and 600 nm, and the ratio of emissions at wavelengths 450/600 were used to yield % BRET efficiency. Data was subjected to non-linear regression, then fitted to a single site binding hyperbolic function.
(§2) In order to evaluate modified oligonucleotides conjugated to CD71 bicycle ligands and RNAi compounds conjugated to CD71 bicycle ligands, the assay was modified as follows. […] Modified oligonucleotides were conjugated to the bicycle ligands through a SPAAC reaction These were then added at a range of concentrations in triplicate assays points, and the mixtures were incubated for 3 hours at room temperature. BRET was initiated with the addition of furimazine and the assay was completed as described above.
Test [3] concerns the target T1, hCD71-Nluc fusion protein. The description is as above. This is another data set of the same source.
Experimental: as §1, §2
Test [4] concerns the target T1, hCD71-Nluc fusion protein. The description is as above. This is another data set of the same source.
Experimental: as §1, §2
Test [5] addresses T1, hCD71-Nluc fusion protein. The test is described as above. The source holds these as a separate data set.
Experimental: as §1, §2
A further test deals with T2, CD71 (Homo sapiens (Human), UniProt P02786 89-760).
T2 construct: also called transferrin receptor; TfR1
Put plainly: SPR Biacore X100, conjugate duplexed to biotin-DNA on streptavidin chip, CD71 injected 6.25-100 nM, 1:1 fit. Background: Surface plasmon resonance follows binding to a sensor surface in real time, without labels.

Test [6] deals with T1, hCD71-Nluc fusion protein. Put plainly: nanoBRET competition, tracer BCY17871-1598988 60 nM, HEK293 hCD71-Nluc membranes. This is another data set of the same source.
Experimental: as §1, §2

Read-outs that look alike come from different tables or passages of the source. Starred links: 1 amine or outer side, 2 acyl side, 3 side chain; linkers in the order of their positions; H or OH if unused. Positions of bridges follow the written chain, without caps; N, C: chain ends. Non-standard residues stand in square brackets, D forms with d. *: point of attachment. azidopropyl = N-terminal modification AzPro, [N-]=[N+]=NCCC*; TATB = O=C(C[*:1])N1CN(C(=O)C[*:2])CN(C(=O)C[*:3])C1; oligonucleotide 1590463 = not defined here; Lys(N3) = [N-]=[N+]=NCCCC[C@H](N)C(=O)O; Hyp = O=C(O)[C@@H]1C[C@@H](O)CN1; Aze = O=C(O)[C@@H]1CCN1

The record followed here is patent US20240382605A1 (IONIS PHARMACEUTICALS, published 2024).

As usually defined, the Ki is a dissociation constant, usually derived from enzyme kinetics or from competition with a known ligand. Higher therefore signals a looser hold on the target. What is called Kd is a measure of binding affinity in units of concentration.

T2 sequence (P02786 89-760 limits assumed, form in doubt): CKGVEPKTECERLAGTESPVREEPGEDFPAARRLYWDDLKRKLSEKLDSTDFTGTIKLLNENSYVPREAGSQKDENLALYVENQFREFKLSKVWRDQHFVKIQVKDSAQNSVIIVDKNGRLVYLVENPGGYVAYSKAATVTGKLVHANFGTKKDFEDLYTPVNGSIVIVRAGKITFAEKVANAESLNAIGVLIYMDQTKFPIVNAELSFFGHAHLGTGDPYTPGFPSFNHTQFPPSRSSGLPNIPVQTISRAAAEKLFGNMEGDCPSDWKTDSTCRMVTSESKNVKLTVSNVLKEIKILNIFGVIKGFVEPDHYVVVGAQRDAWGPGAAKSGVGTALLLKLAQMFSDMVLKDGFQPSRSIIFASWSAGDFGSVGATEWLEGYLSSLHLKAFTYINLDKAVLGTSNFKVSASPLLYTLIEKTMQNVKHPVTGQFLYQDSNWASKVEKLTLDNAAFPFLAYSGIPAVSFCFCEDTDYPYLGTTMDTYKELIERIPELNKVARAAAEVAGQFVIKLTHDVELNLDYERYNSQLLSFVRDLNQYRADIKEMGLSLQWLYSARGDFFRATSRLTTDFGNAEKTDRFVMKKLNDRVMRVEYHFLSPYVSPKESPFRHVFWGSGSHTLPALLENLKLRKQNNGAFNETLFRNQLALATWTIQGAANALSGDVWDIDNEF
T1 sequence (P02786 other isoform, or with tags, fused parts or gaps): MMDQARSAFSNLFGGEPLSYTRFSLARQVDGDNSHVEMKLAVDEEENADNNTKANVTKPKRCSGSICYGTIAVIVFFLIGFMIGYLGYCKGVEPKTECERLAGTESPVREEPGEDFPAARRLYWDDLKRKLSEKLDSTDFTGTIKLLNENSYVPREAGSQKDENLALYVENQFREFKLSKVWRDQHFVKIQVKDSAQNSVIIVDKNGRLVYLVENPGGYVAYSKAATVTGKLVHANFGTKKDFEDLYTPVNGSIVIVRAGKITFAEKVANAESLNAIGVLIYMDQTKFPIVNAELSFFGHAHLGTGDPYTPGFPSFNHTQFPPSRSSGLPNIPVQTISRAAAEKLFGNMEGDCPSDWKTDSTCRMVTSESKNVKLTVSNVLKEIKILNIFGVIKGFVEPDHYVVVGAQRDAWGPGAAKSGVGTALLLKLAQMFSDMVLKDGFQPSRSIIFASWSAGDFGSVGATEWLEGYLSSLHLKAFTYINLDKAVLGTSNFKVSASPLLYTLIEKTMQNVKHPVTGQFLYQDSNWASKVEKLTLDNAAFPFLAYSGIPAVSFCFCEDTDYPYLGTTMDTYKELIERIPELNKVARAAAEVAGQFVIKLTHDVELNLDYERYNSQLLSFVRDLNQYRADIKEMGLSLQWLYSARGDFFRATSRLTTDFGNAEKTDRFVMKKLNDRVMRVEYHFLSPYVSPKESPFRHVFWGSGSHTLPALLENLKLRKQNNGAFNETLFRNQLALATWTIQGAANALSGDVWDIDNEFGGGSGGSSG

B1: 1591118-BCY17901 (peptide)
peptide: CPXDAYLGCXSYCEPWX
modifications: as printed CP[HyP]DAYLGC[tBuGly]SYCEPW[K(N3)]: N-terminal acetyl; C-terminal amide; three Cys bound to TATB scaffold; [HyP] 4-trans-hydroxy-L-proline at 3; [tBuGly] t-butyl glycine at 10; [K(N3)] 6-azido lysine at 17 joined via BCN linker to oligonucleotide 1591118
notes: also called Compound No. 1591118 conjugated to BCY17901
In test [1], B1 had a Ki of 1.4 nM.

B2: 1609732-BCY17873 (peptide)
peptide: CSPDAHLGCISYCEPWX
modifications: not fully specified; as printed CSPDAHLGCISYCEPW[K(N3)]: N-terminal acetyl; C-terminal amide; three Cys bound to TATB scaffold; [K(N3)] 6-azido lysine at 17 joined via BCN linker to oligonucleotide 1609732
notes: also called Compound No. 1609732 conjugated to BCY17873
Regarding B2, the values for the Ki in test [2] and in test [3] were 1 nM and 10 nM, respectively.

B3: 1590463-BCY17894 (peptide)
peptide: CSPDAHLGCISYCEXWX
modifications: not fully specified; as printed CSPDAHLGCISYCE[Pip]W[K(N3)]: N-terminal acetyl; C-terminal amide; three Cys bound to TATB scaffold; [Pip] pipecolic acid at 15; [K(N3)] 6-azido lysine at 17 joined via BCN linker to oligonucleotide 1590463
notes: also called Compound No. 1590463 conjugated to BCY17894
For the molecule B3, the Ki in test [4] amounted to 8 nM; in test [2] it was 1 nM; in test [3] it was 10 nM.

B4: 1602000-BCY17873 (peptide)
peptide: CSPDAHLGCISYCEPWX
modifications: as printed CSPDAHLGCISYCEPW[K(N3)]: N-terminal acetyl; C-terminal amide; three Cys bound to TATB scaffold; [K(N3)] 6-azido lysine at 17 joined to oligonucleotide 1602000 ([PEG1alkyne] linker)
notes: also called Compound No. 1602000 conjugated to BCY17873
For B4, the results for the inhibition constant Ki in test [2] and in test [3] were 1 nM and 36 nM, respectively.

B5: 1591118-BCY17896 (peptide)
peptide: CPXDAYLGCXSYCX
modifications: as printed CP[HyP]DAYLGC[tBuGly]SYC[K(N3)]: N-terminal acetyl; C-terminal amide; three Cys bound to TATB scaffold; [HyP] 4-trans-hydroxy-L-proline at 3; [tBuGly] t-butyl glycine at 10; [K(N3)] 6-azido lysine at 14 joined via BCN linker to oligonucleotide 1591118
notes: also called Compound No. 1591118 conjugated to BCY17896
As to B5, in test [1], the Ki was found to be 3.1 nM.

B6: 1590463-BCY17880 (peptide)
peptide: {oligonucleotide 1590463-BCN linker-azidopropyl}-CS[Aze]DAHLGCISYC-NH2
modifications: linker 1-9-13 via TATB; reading uncertain; also: printed as CiS[Aze]DAHLGCiiISYCiii
notes: also called Compound No. 1590463 conjugated to BCY17880
As for B6, the affinity in test [5], expressed as Ki, was 102 nM. This molecule came in with a Kd with CD71 of 8.2 nM.

B7: 1590463-BCY17873 (peptide)
peptide: CSPDAHLGCISYCEPWX
modifications: not fully specified; as printed CSPDAHLGCISYCEPW[K(N3)]: N-terminal acetyl; C-terminal amide; three Cys bound to TATB scaffold; [K(N3)] 6-azido lysine at 17 joined via BCN linker to oligonucleotide 1590463
notes: also called Compound No. 1590463 conjugated to BCY17873
Turning to B7, the Ki is 6 nM in test [5]; 7 nM in test [4]; 1 nM in test [2]; 10 nM in test [3]; 4 nM in test [6]. In the test with CD71, the Kd came out at 12 nM.

B8: 1598988-BCY17901 (peptide)
peptide: CPXDAYLGCXSYCEPWX
modifications: as printed CP[HyP]DAYLGC[tBuGly]SYCEPW[K(N3)]: N-terminal acetyl; C-terminal amide; three Cys bound to TATB scaffold; [HyP] 4-trans-hydroxy-L-proline at 3; [tBuGly] t-butyl glycine at 10; [K(N3)] 6-azido lysine at 17 joined via BCN linker to oligonucleotide 1598988
In test [1], B8 registered a Ki of 4.4 nM.

B9: 1590463-BCY17899 (peptide)
peptide: NWNCPXDAYLGCXSYCX
modifications: not fully specified; as printed NWNCP[HyP]DAYLGC[tBuGly]SYC[K(N3)]: N-terminal acetyl; C-terminal amide; three Cys bound to TATB scaffold; [HyP] 4-trans-hydroxy-L-proline at 6; [tBuGly] t-butyl glycine at 13; [K(N3)] 6-azido lysine at 17 joined via BCN linker to oligonucleotide 1590463
notes: also called Compound No. 1590463 conjugated to BCY17899
Take B9: the Ki was 4 nM in test [4], 1 nM in test [2] and 4 nM in test [3].

B10: 1590463-BCY17882 (peptide)
peptide: NXNCSPDAHLGCISYCX
modifications: not fully specified; as printed N[dY]NCSPDAHLGCISYC[K(N3)]: N-terminal acetyl; C-terminal amide; three Cys bound to TATB scaffold; [dY] D-tyrosine at 2; [K(N3)] 6-azido lysine at 17 joined via BCN linker to oligonucleotide 1590463
notes: also called Compound No. 1590463 conjugated to BCY17882
On to B10, for which the values for the Ki in test [4], in test [2] and in test [3] were 23 nM, 3 nM and 55 nM, respectively.

B11: 1590463-BCY17878 (peptide)
peptide: {oligonucleotide 1590463-BCN linker-azidopropyl}-CS[Hyp]DAHLGCISYC-NH2
modifications: linker 1-9-13 via TATB; reading uncertain; also: printed as CS[HyP]DAHLGCISYC
notes: also called Compound No. 1590463 conjugated to BCY17878
Turning to B11, the Ki in test [5] was found to be 74 nM. Binding with CD71 was put at a Kd of 126 nM.

B12: 1590463-BCY19407 (peptide)
peptide: CSPDAHLGCISYCEPWGGSGGSX
modifications: not fully specified; as printed CSPDAHLGCISYCEPWGGSGGS[K(N3)]: N-terminal acetyl; C-terminal amidated; three Cys bound to molecular scaffold; [K(N3)] 6-azido lysine at 23 joined via BCN linker to oligonucleotide 1590463
notes: also called Compound No. 1590463 conjugated to BCY19407
In test [6], B12 displayed a Ki of 2 nM.

B13: 1590463-BCY17877 (peptide)
peptide: CSXDAHLGCISYCX
modifications: not fully specified; as printed CS[HyP]DAHLGCISYC[K(N3)]: N-terminal acetyl; C-terminal amide; three Cys bound to TATB scaffold; [HyP] 4-trans-hydroxy-L-proline at 3; [K(N3)] 6-azido lysine at 14 joined via BCN linker to oligonucleotide 1590463
notes: also called Compound No. 1590463 conjugated to BCY17877
For B13, the Ki in test [5] stood at 18 nM. This counts as double-digit nanomolar.

B14: 1590463-BCY17905 (peptide)
peptide: Ac-CSPD[Lys(N3)]HLGCISYC-NH2
modifications: linker 1-9-13 via TATB; not fully specified (residue 5); printed as CSPD[K(N3)]HLGCISYC; also: azide of K(N3) in loop clicked via BCN linker to oligonucleotide 1590463
notes: also called Compound No. 1590463 conjugated to BCY17905
On to B14, for which the Ki was 148 nM in test [4] and 16 nM in test [2].

B15: 1590463-BCY17879 (peptide)
peptide: CSXDAHLGCISYCX
modifications: not fully specified; as printed CS[Aze]DAHLGCISYC[K(N3)]: N-terminal acetyl; C-terminal amide; three Cys bound to TATB scaffold; [Aze] azetidine at 3; [K(N3)] 6-azido lysine at 14 joined via BCN linker to oligonucleotide 1590463
notes: also called Compound No. 1590463 conjugated to BCY17879
On to B15, for which affinity in test [5] was put at a Ki of 25 nM. This molecule also showed a dissociation constant Kd with CD71 of 31.2 nM.

B16: 1590463-BCY17901 (peptide)
peptide: CPXDAYLGCXSYCEPWX
modifications: not fully specified; as printed CP[HyP]DAYLGC[tBuGly]SYCEPW[K(N3)]: N-terminal acetyl; C-terminal amide; three Cys bound to TATB scaffold; [HyP] 4-trans-hydroxy-L-proline at 3; [tBuGly] t-butyl glycine at 10; [K(N3)] 6-azido lysine at 17 joined via BCN linker to oligonucleotide 1590463
notes: also called Compound 1590463-BCY17901; Compound No. 1666846
Turning to B16, the Ki in test [4] turned out to be 1 nM; in test [2] it was 0.3 nM; in test [3], 1 nM.
